Reference: patent US20110201077

System: recombinant streptokinase produced with the pET21b expression construct (double-mutant, plasmin-resistant, polyhistidine-tagged)

Substance	streptokinase proteolysis followed by Western blot, 1:1 mole ratio (data not shown)	conversion of recombinant plasminogen to recombinant plasmin, time course on reducing SDS-PAGE, 100:1 mole ratio plasminogen:streptokinase
recombinant plasmin	a very stable streptokinase fragment was generated, even at t=18 hours into the reaction	
recombinant plasminogen		At t=18 hours into the reaction, nearly all of the recombinant plasminogen had been converted to recombinant plasmin
